Test results: FireProtDB (doi:10.1021/bi012084+)

Conditions: Geobacillus stearothermophilus; pH 7.5; Thermal; DSC; KH2PO4/KOH 100 mM; reversible: no; whole UniProt chain shown

B1: Glyceraldehyde-3-phosphate dehydrogenase wild type, P00362 (protein)
chain: MAVKVGINGFGRIGRNVFRAALKNPDIEVVAVNDLTDANTLAHLLKYDSVHGRLDAEVSVNGNNLVVNGKEIIVKAERDPENLAWGEIGVDIVVESTGRFTKREDAAKHLEAGAKKVIISAPAKNEDITIVMGVNQDKYDPKAHHVISNASCTTNCLAPFAKVLHEQFGIVRGMMTTVHSYTNDQRILDLPHKDLRRARAAAESIIPTTTGAAKAVALVLPELKGKLNGMAMRVPTPNVSVVDLVAELEKEVTVEEVNAALKAAAEGELKGILAYSEEPLVSRDYNGSTVSSTIDALSTMVIDGKMVKVVSWYDNETGYSHRVVDLAAYIASKGL
- unfolding enthalpy (calorimetric): 408 kcal/mol
